Results taken from paper PMC3565967, “Biochemical Similarities and Differences between the Catalytic [4Fe-4S] Cluster Containing Fumarases FumA and FumB from Escherichia coli” (PLoS ONE, 2013).

Tests used:
FumA = FumA (Escherichia coli, UniProt P0AC33); assay: fumarate depletion at […] nm, Michaelis-Menten fit; type: biochemical; conditions: anaerobic, 100 mM EPPS pH 8, 5% glycerol, 0.5 mM DTT, 37 °C; regenerated [4Fe-4S] enzyme
FumB = molecular target: T1, FumB (Escherichia coli, UniProt P14407); assay: fumarate depletion at […] nm, Michaelis-Menten fit; type: biochemical; conditions: anaerobic, 100 mM EPPS pH 8, 5% glycerol, 0.5 mM DTT, 37 °C; regenerated [4Fe-4S] enzyme
T1 construct: full length, N-terminal His-tag (pET15b, gene from plasmid pGS56), expressed in E. coli BL21(DE3); [4Fe-4S] cluster regenerated with Fe2+ and L-cysteine; homodimer circa 120 kDa

purified protein [1] = substrate: O=C(O)C(O)C(O)C(=O)O; assay: purified protein; conditions: anaerobic, 100 mM EPPS pH 8, 5% glycerol, 0.5 mM DTT, 100 µM NADH, 1 mM MgCl2, 37 °C, regenerated [4Fe-4S] enzyme
purified protein [2] = substrate: O=C(O)C[C@H](O)C(=O)O; assay: purified protein; conditions: anaerobic, 100 mM EPPS pH 8, 5% glycerol, 0.5 mM DTT, 37 °C, regenerated [4Fe-4S] enzyme
[3] = molecular target: the molecule itself; assay: SEC; Superdex 200, to estimate the molecular weight of the native enzyme; data not shown

Molecule | Km (FumA) | Km (FumB) | Km (purified protein [1]) | Vmax (purified protein [1]) | kcat/Km (purified protein [1]) | Km (purified protein [2]) | Vmax (purified protein [2]) | kcat/Km (purified protein [2]) | stoichiometry N [3]
O=C(O)/C=C/C(=O)O [fumarate] | 460 ± 80 µM | 320 ± 40 µM | – | – | – | – | – | – | –
Fumarase B (FumB) from Escherichia coli (enzyme, E. coli, UniProt P14407 1-548, looked up, FumB, class I [4Fe-4S] fumarase of E. coli; the gene from plasmid pGS56 was cloned into pET15b; After nickel column purification the enzyme held [3Fe-4S] clusters in only 10-25% of the protein, the rest being apoprotein; also called fumarate hydratase class I, anaerobic; source: E. coli BL21(DE3), pET15b-FumB, purified (nickel sepharose column)) MSNKPFIYQAPFPMGKDNTEYYLLTSDYVSVADFDGETILKVEPEALTLLAQQAFHDASFMLRPAHQKQVAAILHDPEASENDKYVALQFLRNSEIAAKGVLPTCQDTGTAIIVGKKGQRVWTGGGDEETLSKGVYNTYIEDNLRYSQNAALDMYKEVNTGTNLPAQIDLYAVDGDEYKFLCVAKGGGSANKTYLYQETKALLTPGKLKNFLVEKMRTLGTAACPPYHIAFVIGGTSAETNLKTVKLASAHYYDELPTEGNEHGQAFRDVQLEQELLEEAQKLGLGAQFGGKYFAHDIRVIRLPRHGASCPVGMGVSCSADRNIKAKINREGIWIEKLEHNPGQYIPQELRQAGEGEAVKVDLNRPMKEILAQLSQYPVSTRLSLTGTIIVGRDIAHAKLKELIDAGKELPQYIKDHPIYYAGPAKTPAGYPSGSLGPTTAGRMDSYVDLLQSHGGSMIMLAKGNRSQQVTDACHKHGGFYLGSIGGPAAVLAQQSIKHLECVAYPELGMEAIWKIEVEDFPAFILVDDKGNDFFQQIVNKQCANCTK | – | – | 800 ± 100 µM | 9.2±0.4 umol product/minute/mg enzyme | (12±2)⋅10^3 s^-1 M^-1 | 300 ± 70 µM | (4.9±0.3)·10^2 umol product/minute/mg enzyme | (1.6±0.4)⋅10^6 s^-1 M^-1 | 2
FumA (Escherichia coli K-12) (protein) SNKPFHYQAPFPLKKDDTEYYLLTSEHVSVSEFEGQEILKVAPEALTLLARQAFHDASFMLRPAHQQQVADILRDPEASENDKYVALQFLRNSDIAAKGVLPTCQDTGTAIIVGKKGQRVWTGGGDEAALARGVYNTYIEDNLRYSQNAPLDMYKEVNTGTNLPAQIDLYAVDGDEYKFLCIAKGGGSANKTYLYQETKALLTPGKLKNYLVEKMRTLGTAACPPYHIAFVIGGTSAETNLKTVKLASAKYYDELPTEGNEHGQAFRDVELEKELLIEAQNLGLGAQFGGKYFAHDIRVIRLPRHGASCPVGMGVSCSADRNIKAKINRQGIWIEKLEHNPGKYIPEELRKAGEGEAVRVDLNRPMKEILAQLSQYPVSTRLSLNGTIIVGRDIAHAKLKERMDNGEGLPQYIKDHPIYYAGPAKTPEGYASGSLGPTTAGRMDSYVDQLQAQGGSMIMLAKGNRSQQVTDACKKHGGFYLGSIGGPAAVLAQGSIKSLECVEYPELGMEAIWKIEVEDFPAFILVDDKGNDFFQQIQLTQCTRCVK | – | – | 800 ± 300 µM | 2.3±0.3 umol product/minute/mg enzyme | (3±1)⋅10^3 s^-1 M^-1 | 700 ± 100 µM | (7.2±0.4)·10^2 umol product/minute/mg enzyme | (1.0±0.2)⋅10^6 s^-1 M^-1 | –
